Results taken from patent publication US20250019439A1 (Adimab, published 2025).

Experiments:
[1] = biological target: T1, ADI-70326; experiment: SPR Carterra avidity, yeast anti-ID
T1 construct: anti-CD3 antibody made in CHO cells, captured by anti-human Fc
Protocol: (§1) Kinetic analysis was conducted at 25° C. in an HBSTE running buffer system (Carterra Cat #3630) using a Carterra LSA (Carterra USA, Salt Lake City, UT). The sample compartment was maintained at 20° C. for the duration of each experiment.
(§2) For antibody capture experiments, a goat anti-human Fc antibody (Jackson ImmunoResearch) was covalently coupled to an HC30M sensor chip surface via standard amine coupling (1:1 EDC:NHS) and then blocked with ethanolamine (1.0 M, pH 8.5). Covalent coupling steps were performed in 25 mM MES buffer (Carterra, Cat #3625) plus 0.05% Tween20. The anti-CD3 antibodies (100 nM in running buffer) were flowed over discrete regions of interest on the chip surface for 5 minutes. […] Dissociation of the anti-idiotype antibodies was monitored for 300s. Several blank buffer samples were injected over the entire chip surface at the start of each non-regenerative kinetic cycle. The preceding blank buffer injection was used for blank surface subtraction. At the end of each non-regenerative kinetic cycle, all surfaces were regenerated via two 30s injections of 10 mM glycine, pH 1.7.
(§3) For data processing and fitting, sensorgrams were double reference subtracted with a baseline drift correction of 4 RU. Sensorgrams were y-aligned and baseline corrected, filtered and cropped to include only the association and dissociation steps. Data was fitted to a 1:1 binding model using Carterra Kinetics Data Analysis software version 1.7.1.3055.

[2] = biological target: T2, ADI-70327; experiment: SPR Carterra avidity, yeast anti-ID
T2 construct: anti-CD3 antibody made in CHO cells, captured by anti-human Fc
Protocol: as §1, §2, §3

[3] = biological target: T3, ADI-70330; experiment: SPR Carterra avidity, yeast anti-ID
T3 construct: anti-CD3 antibody made in CHO cells, captured by anti-human Fc
Protocol: as §1, §2, §3

[4] = biological target: T4, ADI-67450; experiment: SPR Carterra avidity, yeast anti-ID
T4 construct: anti-CD3 antibody made in CHO cells, captured by anti-human Fc
Protocol: as §1, §2, §3

[5] = biological target: T5, ADI-67445; experiment: SPR Carterra avidity, yeast anti-ID
T5 construct: anti-CD3 antibody made in CHO cells, captured by anti-human Fc
Protocol: as §1, §2, §3

[6] = biological target: T6, ADI-67447; experiment: SPR Carterra avidity, yeast anti-ID
T6 construct: anti-CD3 antibody made in CHO cells, captured by anti-human Fc
Protocol: as §1, §2, §3

[7] = biological target: T7, ADI-26909; experiment: SPR Carterra avidity, yeast anti-ID
T7 construct: anti-CD3 antibody made in CHO cells, captured by anti-human Fc
Protocol: as §1, §2, §3

[8] = biological target: T8, ADI-26913 IgG; experiment: SPR Carterra avidity, yeast anti-ID
T8 construct: anti-CD3 IgG
Protocol: as §1, §2, §3

[9] = biological target: T9, ADI-26916 IgG; experiment: SPR Carterra avidity, yeast anti-ID
T9 construct: anti-CD3 IgG
Protocol: as §1, §2, §3

[10] = biological target: T10, ADI-26912; experiment: SPR Carterra avidity, yeast anti-ID
T10 construct: anti-CD3 antibody made in CHO cells, captured by anti-human Fc
Protocol: as §1, §2, §3

[11] = biological target: T11, ADI-26924; experiment: SPR Carterra avidity, yeast anti-ID
T11 construct: anti-CD3 antibody made in CHO cells, captured by anti-human Fc
Protocol: as §1, §2, §3

[12] = biological target: T12, ADI-26915; experiment: SPR Carterra avidity, yeast anti-ID
T12 construct: anti-CD3 antibody made in CHO cells, captured by anti-human Fc
Protocol: as §1, §2, §3

[13] = biological target: T13, ADI-48576; experiment: SPR Carterra avidity, yeast anti-ID
T13 construct: pH-dependent anti-CD3 antibody made in CHO cells
Protocol: as §1, §2, §3

[14] = biological target: T14, ADI-48587; experiment: SPR Carterra avidity, yeast anti-ID
T14 construct: pH-dependent anti-CD3 antibody made in CHO cells
Protocol: as §1, §2, §3

[15] = biological target: T15, ADI-48592; experiment: SPR Carterra avidity, yeast anti-ID
T15 construct: pH-dependent anti-CD3 antibody made in CHO cells
Protocol: as §1, §2, §3

[16] = biological target: T16, ADI-48650; experiment: SPR Carterra avidity, yeast anti-ID
T16 construct: pH-dependent anti-CD3 antibody made in CHO cells
Protocol: as §1, §2, §3

[17] = biological target: T17, ADI-74965; experiment: SPR Carterra avidity, yeast anti-ID
T17 construct: pH-dependent anti-CD3 antibody made in CHO cells
Protocol: as §1, §2, §3

[18] = biological target: T18, ADI-74966; experiment: SPR Carterra avidity, yeast anti-ID
T18 construct: pH-dependent anti-CD3 antibody made in CHO cells
Protocol: as §1, §2, §3

[19] = biological target: T19, ADI-74967; experiment: SPR Carterra avidity, yeast anti-ID
T19 construct: pH-dependent anti-CD3 antibody made in CHO cells
Protocol: as §1, §2, §3

[20] = biological target: T20, ADI-74968; experiment: SPR Carterra avidity, yeast anti-ID
T20 construct: pH-dependent anti-CD3 antibody made in CHO cells
Protocol: as §1, §2, §3

[21] = biological target: T21, ADI-76357; experiment: SPR Carterra avidity, yeast anti-ID
T21 construct: anti-CD3 antibody made in CHO cells, captured by anti-human Fc
Protocol: as §1, §2, §3

[22] = biological target: T22, ADI-76358; experiment: SPR Carterra avidity, yeast anti-ID
T22 construct: anti-CD3 antibody made in CHO cells, captured by anti-human Fc
Protocol: as §1, §2, §3

[23] = biological target: T23, ADI-76360; experiment: SPR Carterra avidity, yeast anti-ID
T23 construct: anti-CD3 antibody made in CHO cells, captured by anti-human Fc
Protocol: as §1, §2, §3

[24] = biological target: T24, ADI-76362; experiment: SPR Carterra avidity, yeast anti-ID
T24 construct: anti-CD3 antibody made in CHO cells, captured by anti-human Fc
Protocol: as §1, §2, §3

[25] = biological target: T25, CTL-62223; experiment: SPR Carterra avidity, yeast anti-ID
T25 construct: also called mosunetuzumab
Protocol: as §1, §2, §3

[26] = biological target: T26, ADI-22523 Fab; experiment: BLI; tip anti-ID IgG, solution ADI-22523 Fab
T26 construct: anti-CD3 Fab by papain digestion of the IgG
Protocol: (§4) ForteBio affinity measurements were performed generally as previously described (Estep et al., MAbs. 2013 5(2):270-8). Briefly, ForteBio affinity measurements were performed by loading antibody IgG or Fabs on-line onto AHC sensors. Sensors were equilibrated off-line in assay buffer for 30 minutes and then monitored on-line for 60 seconds for baseline establishment. For avid binding measurement, sensors with loaded antibodies were exposed to IgG or Fab solutions for 3 minutes, afterwards they were transferred to assay buffer for 3 minutes for off-rate measurement. Kinetics data were fit using a 1:1 binding model in the data analysis software provided by ForteBio to obtain equilibrium dissociation constant (KD=koff/kₒₙ) values. In each column, tip-immobilized antibodies are listed first and solution antibodies second.

[27] = biological target: T27, ADI-22523 IgG; experiment: BLI; tip anti-ID IgG, solution ADI-22523 IgG
T27 construct: anti-CD3 IgG
Protocol: as §4

[28] = biological target: T28, ADI-50024; experiment: SPR Carterra avidity, yeast anti-ID, *koff limit
T28 construct: anti-CD3 antibody made in CHO cells, captured by anti-human Fc
Protocol: as §1, §2, §3

[29] = biological target: T29, ADI-26906 IgG; experiment: SPR Carterra avidity, yeast anti-ID, *koff limit
T29 construct: anti-CD3 IgG
Protocol: as §1, §2, §3

[30] = biological target: T30, ADI-26919; experiment: SPR Carterra avidity, yeast anti-ID, *koff limit
T30 construct: anti-CD3 antibody made in CHO cells, captured by anti-human Fc
Protocol: as §1, §2, §3

[31] = biological target: T31, ADI-26920 IgG; experiment: SPR Carterra avidity, yeast anti-ID, *koff limit
T31 construct: anti-CD3 IgG
Protocol: as §1, §2, §3

[32] = biological target: T32, ADI-26921 IgG; experiment: SPR Carterra avidity, yeast anti-ID, *koff limit
T32 construct: anti-CD3 IgG
Protocol: as §1, §2, §3

[33] = biological target: T33, ADI-26943; experiment: SPR Carterra avidity, yeast anti-ID, *koff limit
T33 construct: anti-CD3 antibody made in CHO cells, captured by anti-human Fc
Protocol: as §1, §2, §3

[34] = biological target: T34, ADI-76359; experiment: SPR Carterra avidity, yeast anti-ID, *koff limit
T34 construct: anti-CD3 antibody made in CHO cells, captured by anti-human Fc
Protocol: as §1, §2, §3

[35] = biological target: T35, ADI-76361; experiment: SPR Carterra avidity, yeast anti-ID, *koff limit
T35 construct: anti-CD3 antibody made in CHO cells, captured by anti-human Fc
Protocol: as §1, §2, §3

T7 sequence (VH, as listed by the source limits assumed, chain 1 of 2): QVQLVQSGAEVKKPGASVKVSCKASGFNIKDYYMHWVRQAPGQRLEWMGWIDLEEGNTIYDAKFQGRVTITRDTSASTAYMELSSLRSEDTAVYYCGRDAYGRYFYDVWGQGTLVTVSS
T7 sequence (VL, as listed by the source limits assumed, chain 2 of 2): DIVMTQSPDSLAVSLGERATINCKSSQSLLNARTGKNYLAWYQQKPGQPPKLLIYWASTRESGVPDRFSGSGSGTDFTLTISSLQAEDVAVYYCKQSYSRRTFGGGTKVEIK
T6 sequence (VH, as listed by the source limits assumed, chain 1 of 2): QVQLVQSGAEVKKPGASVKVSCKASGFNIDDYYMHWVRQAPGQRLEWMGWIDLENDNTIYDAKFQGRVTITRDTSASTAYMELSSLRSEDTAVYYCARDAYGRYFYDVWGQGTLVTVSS
T35 sequence (VH, as listed by the source, chain 1 of 2): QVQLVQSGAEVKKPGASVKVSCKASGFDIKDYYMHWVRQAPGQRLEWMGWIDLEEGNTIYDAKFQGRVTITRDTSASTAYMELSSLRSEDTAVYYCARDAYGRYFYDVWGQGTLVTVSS
T35 sequence (VL, as listed by the source, chain 2 of 2): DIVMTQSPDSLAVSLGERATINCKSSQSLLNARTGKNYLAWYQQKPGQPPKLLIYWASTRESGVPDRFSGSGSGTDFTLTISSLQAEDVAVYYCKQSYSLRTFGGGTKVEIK
T23 sequence (VH, as listed by the source, chain 1 of 2): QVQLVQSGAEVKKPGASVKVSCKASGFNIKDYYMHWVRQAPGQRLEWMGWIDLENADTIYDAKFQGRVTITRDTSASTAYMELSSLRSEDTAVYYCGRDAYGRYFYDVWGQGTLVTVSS
T9 sequence (VH, as listed by the source, chain 1 of 2): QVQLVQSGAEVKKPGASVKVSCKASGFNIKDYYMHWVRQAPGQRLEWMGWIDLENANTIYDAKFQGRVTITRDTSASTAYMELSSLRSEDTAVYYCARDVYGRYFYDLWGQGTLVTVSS
T29 sequence (VH, as listed by the source limits assumed, chain 1 of 2): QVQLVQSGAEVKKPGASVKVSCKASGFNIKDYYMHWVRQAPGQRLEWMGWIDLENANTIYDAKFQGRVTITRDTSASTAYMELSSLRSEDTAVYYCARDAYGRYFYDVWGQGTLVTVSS
T10 sequence (VH, as listed by the source, chain 1 of 2): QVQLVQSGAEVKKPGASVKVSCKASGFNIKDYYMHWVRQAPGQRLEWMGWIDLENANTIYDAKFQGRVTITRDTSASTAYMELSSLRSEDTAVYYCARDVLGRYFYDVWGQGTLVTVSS
T15 sequence (VH, as listed by the source, chain 1 of 2): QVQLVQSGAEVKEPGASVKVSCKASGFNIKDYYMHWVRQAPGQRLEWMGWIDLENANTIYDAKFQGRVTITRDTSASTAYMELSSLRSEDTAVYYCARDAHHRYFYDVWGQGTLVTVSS
T15 sequence (VL, as listed by the source, chain 2 of 2): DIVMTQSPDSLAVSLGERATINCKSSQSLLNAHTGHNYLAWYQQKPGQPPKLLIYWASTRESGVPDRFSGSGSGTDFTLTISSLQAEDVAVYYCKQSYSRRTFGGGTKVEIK
T21 sequence (VH, as listed by the source, chain 1 of 2): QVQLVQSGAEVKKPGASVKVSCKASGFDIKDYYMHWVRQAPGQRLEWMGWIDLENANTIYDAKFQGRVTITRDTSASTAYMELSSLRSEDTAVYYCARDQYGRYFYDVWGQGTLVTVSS
T11 sequence (VH, as listed by the source, chain 1 of 2): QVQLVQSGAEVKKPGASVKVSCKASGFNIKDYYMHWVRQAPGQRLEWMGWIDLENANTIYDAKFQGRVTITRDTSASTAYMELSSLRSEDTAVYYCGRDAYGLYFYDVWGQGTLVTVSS
T14 sequence (VH, as listed by the source, chain 1 of 2): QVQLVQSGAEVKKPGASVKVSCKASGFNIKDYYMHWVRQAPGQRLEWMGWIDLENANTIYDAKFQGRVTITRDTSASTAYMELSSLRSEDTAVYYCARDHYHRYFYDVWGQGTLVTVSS
T14 sequence (VL, as listed by the source, chain 2 of 2): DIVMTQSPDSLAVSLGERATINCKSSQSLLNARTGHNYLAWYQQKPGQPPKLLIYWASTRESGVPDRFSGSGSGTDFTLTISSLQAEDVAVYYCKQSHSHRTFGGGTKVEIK
T19 sequence (VL, as listed by the source, chain 2 of 2): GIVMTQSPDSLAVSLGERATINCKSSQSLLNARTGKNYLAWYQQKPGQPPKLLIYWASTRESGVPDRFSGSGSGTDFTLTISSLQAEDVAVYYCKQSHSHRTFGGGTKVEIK
T18 sequence (VL, as listed by the source, chain 2 of 2): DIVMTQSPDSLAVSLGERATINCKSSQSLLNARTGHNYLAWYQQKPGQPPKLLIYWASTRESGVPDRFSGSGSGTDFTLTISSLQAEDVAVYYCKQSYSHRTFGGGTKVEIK
T3 sequence (VH, as listed by the source limits assumed, chain 1 of 2): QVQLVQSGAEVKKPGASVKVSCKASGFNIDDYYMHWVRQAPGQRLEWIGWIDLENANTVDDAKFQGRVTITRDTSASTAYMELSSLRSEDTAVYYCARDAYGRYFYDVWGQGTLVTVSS
T3 sequence (VL, as listed by the source limits assumed, chain 2 of 2): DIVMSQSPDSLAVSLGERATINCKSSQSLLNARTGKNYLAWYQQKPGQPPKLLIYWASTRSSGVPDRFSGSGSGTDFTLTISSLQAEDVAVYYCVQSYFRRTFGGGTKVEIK
T28 sequence (VH, as listed by the source limits assumed, chain 1 of 2): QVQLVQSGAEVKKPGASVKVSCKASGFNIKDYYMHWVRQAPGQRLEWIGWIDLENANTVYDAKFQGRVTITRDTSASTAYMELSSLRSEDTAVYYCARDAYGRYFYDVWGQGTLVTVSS
T16 sequence (VH, as listed by the source, chain 1 of 2): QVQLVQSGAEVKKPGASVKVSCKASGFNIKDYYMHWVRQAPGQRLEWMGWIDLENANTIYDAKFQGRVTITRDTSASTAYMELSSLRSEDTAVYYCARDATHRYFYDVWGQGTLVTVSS
T16 sequence (VL, as listed by the source, chain 2 of 2): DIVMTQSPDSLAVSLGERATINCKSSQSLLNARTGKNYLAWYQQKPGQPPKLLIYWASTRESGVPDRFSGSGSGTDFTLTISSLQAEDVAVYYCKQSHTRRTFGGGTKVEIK
T4 sequence (VH, as listed by the source limits assumed, chain 1 of 2): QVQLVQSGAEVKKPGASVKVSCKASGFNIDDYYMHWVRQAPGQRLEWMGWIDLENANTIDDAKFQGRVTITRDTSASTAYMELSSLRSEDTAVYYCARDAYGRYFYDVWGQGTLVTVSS

B1: ADI-34135 (antibody, V domains shown)
VH: QVQLVQSGAEVKKPGSSVKVSCKASGGTFSSYAISWVRQAPGQGLEWMGGIIPIFGTANYAQKFQGRVTITADESTSTAYMELSSLRSEDTAVYYCARGAPNYYGSGGYDDGWFDPWGQGTLVTVSS
VL: EIVMTQSPGTLSLSPGERATLSCRASQSVSSSYLAWYQQKPGQAPRLLIYGASSRATGIPDRFSGSGSGTDFTLTISRLEPEDFAVYYCQQFGRYPTFGGGTKVEIK
notes: anti-ID IgG
- Kd [1]: 4.1 nM
- binding result [2]: binds
- Kd [3]: 0.47 nM
- Kd [4]: 0.63 nM
- Kd [5]: 0.34 nM
- Kd [6]: 0.26 nM
- Kd [7]: 0.1 nM
- Kd [8]: 0.1 nM
- Kd [9]: 0.14 nM
- binding result [10]: binds
- Kd [11]: 0.14 nM
- Kd [12]: 15 nM
- Kd [13]: 31 nM
- Kd [14]: 1.8 nM
- Kd [15]: 19 nM
- binding result [16]: binds
- binding result [17]: binds
- Kd [18]: 0.35 nM
- Kd [19]: 0.21 nM
- Kd [20]: 0.83 nM
- Kd [21]: 0.097 nM
- Kd [22]: 1.1 nM
- Kd [23]: 0.15 nM
- Kd [24]: 0.41 nM
- Kd [25]: 1.2 nM
- Kd [26]: 7.81 nM
- Kd [27]: 0.54 nM
- Kd [28]: 0.17 nM
- Kd [29]: 0.13 nM
- Kd [30]: 0.082 nM
- Kd [31]: 0.11 nM
- Kd [32]: 0.073 nM
- Kd [33]: 0.099 nM
- Kd [34]: 0.053 nM
- Kd [35]: 0.044 nM
